The chains are these.
B1: Azoarcus group I ribozyme (parent)
chain: GUGCCUUGCGCCGGGAAACCACGCAAGGGAUGGUGUCAAAUUCGGCGAAACCUAAGCGCCCGCCCGGGCGUAUGGCAACGCCGAGCCAAGCUUCGGCGCCUGCGCCGAUGAAGGUGUAGAGACUAGACGGCACCCACCUAAGGCAAACGCUAUGGUGAAGGCAUAGUCCAGGGAGUGGCGAAAGUCACACAAACCGG

In this series the parent is B1. The series can be described thus: reverse-splicing fitness (ratio to wild type); higher = more active; in vitro selection; Mg2+ level not given. The method, boiled down:
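An in vitro group I ribozyme library with randomized positions was T7-transcribed and gel-purified. In triplicate, 10 pmol RNA in EPPS pH 7.5 was reacted with 50 pmoles of a 30-nt RNA substrate for 1 h at 37 °C across several added MgCl2 levels (1–48 mM), then stopped with EDTA. Products were reverse transcribed from a substrate-complementary primer, PCR-amplified and sequenced (HiSeq 4000). Fitness is a variant's read proportion after selection over that before, normalised to wild type.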
Consider C82G A120U A145C C150A C169U, for which the reverse-splicing fitness is 0.00213. Turning to C82G A120U A145C C150A C169A, the reverse-splicing fitness came out at 0.00159. For the variant C82G A120G A145C U176C, the reverse-splicing fitness came to 0.0158. As for C82G A120G A145C U176G, the figure is 0.00484.

Turning to C82G A120G A145C U176A, the reverse-splicing fitness is 0.0133.

As to C82G A120G A145U C150U U176G, the reverse-splicing fitness worked out at 0.00475. The figure for C82G A120G A145U C150U U176A is 0.0121; for C82G A120G A145U C150U U176C it is 0.0189; for C82G A120U A145C C169U U176A it is 0.00266. On to C82G A120U A145C C169U U176C, for which the reverse-splicing fitness was 0.00223. The figure for C82G A120U A145C C169U U176G is 0.00148; for C82G A120U A145C C150G C169U U176G it is 0.00182. The figure for C82G A120U A145C C150G C169U U176A is 0.00213; for C82G A120U A145C C150G C169U U176C it is 0.00176. The figure for C82G A120G A145C C150U C169G U176C is 0.0128; for C82G A120G A145C C150U C169G U176G it is 0.00426; for C82G A120G A145C C150U C169G U176A it is 0.0238. With C82G A120G C169U U176C, the reverse-splicing fitness is 0.024.

Turning to C82G A120G C169U U176A, the reverse-splicing fitness came out at 0.0236.

Consider C82G A120G C169U U176G, for which the reverse-splicing fitness came out at 0.00492. For the variant C82G A120G A145C C169A, the reverse-splicing fitness worked out at 0.0237. The figure for C82G A120G A145C C169G is 0.0468; for C82G A120G A145C C169U it is 0.0209; for C82G A120G A145C C150A C169A it is 0.00825. As for C82G A120G A145C C150A C169G, the figure is 0.00875; as for C82G A120G A145C C150A C169U, 0.00751; as for C82G A120G A145C C150U U176A, 0.00928. As for C82G A120G A145C C150U U176G, the figure is 0.00485; as for C82G A120G A145C C150U U176C, 0.00922; as for C82G A120G A145C C150G C169G, 0.0108. As to C82G A120G A145C C150G C169U, the reverse-splicing fitness worked out at 0.00976.

Take C82G A120G A145C C150G C169A: the reverse-splicing fitness was 0.0102. The figure for C82G A120G A145C C150U C169U is 0.0103; for C82G A120G A145C C150U C169G it is 0.0163; for C82G A120G A145C C150U C169A it is 0.0116. As for C82G A120G A145G C150A U176A, the figure is 0.011.

For the variant C82G A120G A145G C150A U176C, the reverse-splicing fitness is 0.0209. Regarding C82G A120G A145G C150A U176G, the reverse-splicing fitness worked out at 0.00757. The figure for C82G A120U A145G C150A is 0.0245; for C82G A120U A145C C150G C169A it is 0.00195. Consider C82G A120U A145C C150G C169U, for which the reverse-splicing fitness was found to be 0.00302. The figure for C82G A120U A145C C150G C169G is 0.00253; for C82G A120U A145C C169U it is 0.00694; for C82G A120U A145C C169G it is 0.00562. C82G A120U A145C C169A: the reverse-splicing fitness is 0.00201. Take C82G A120G A145G C169A U176C: the reverse-splicing fitness stood at 0.0269. The figure for C82G A120G A145G C169A U176G is 0.00439; for C82G A120G A145G C169A U176A it is 0.0185; for C82G A120G A145C C169U U176G it is 0.00392. As for C82G A120G A145C C169U U176C, the figure is 0.0185. As for C82G A120G A145C C169U U176A, the figure is 0.0207.

On to C82G A120U A145C C150A C169G U176G, for which the reverse-splicing fitness was found to be 0.00136. As for C82G A120U A145C C150A C169G U176C, the reverse-splicing fitness is 0.00207.

Turning to C82G A120U A145C C150A C169G U176A, the reverse-splicing fitness is 0.0023.

C82G A120G C150U C169U U176G: the reverse-splicing fitness came to 0.00651.

On to C82G A120G C150U C169U U176A, for which the reverse-splicing fitness was found to be 0.023. The figure for C82G A120G C150U C169U U176C is 0.0203; for C82G A120C C169U U176A it is 0.019; for C82G A120C C169U U176C it is 0.0155. The figure for C82G A120C C169U U176G is 0.00468; for C82G A120G A145U C150A it is 0.00866. On to C82G A120G A145U C150G, for which the reverse-splicing fitness amounted to 0.00803. The figure for C82G A120G A145U C150U is 0.0229.

On to C82G A120G A145G C150A C169U U176G, for which the reverse-splicing fitness was determined as 0.00581. The figure for C82G A120G A145G C150A C169U U176A is 0.021; for C82G A120G A145G C150A C169U U176C it is 0.0168; for C82G A120G A145G C150G C169G U176G it is 0.00567. As for C82G A120G A145G C150G C169G U176C, the figure is 0.0129; as for C82G A120G A145G C150G C169G U176A, 0.0108. The figure for C82G A120G C150A U176C is 0.0195. Turning to C82G A120G C150A U176A, the reverse-splicing fitness worked out at 0.0119.

C82G A120G C150A U176G: the reverse-splicing fitness came to 0.0105. The figure for C82G A120U A145C C150G U176A is 0.00741. The figure for C82G A120U A145C C150G U176C is 0.00907; for C82G A120U A145C C150G U176G it is 0.00292; for C82G A120G A145C C150G C169A U176C it is 0.00681. As for C82G A120G A145C C150G C169A U176A, the figure is 0.00893; as for C82G A120G A145C C150G C169A U176G, 0.00487; as for C82G A120G A145U C150U C169A U176G, 0.00467. For C82G A120G A145U C150U C169A U176A, the reverse-splicing fitness stood at 0.0161. The figure for C82G A120G A145U C150U C169A U176C is 0.0133.

C82G A120G A145U C150G U176A: the reverse-splicing fitness was 0.00666. The figure for C82G A120G A145U C150G U176G is 0.00404; for C82G A120G A145U C150G U176C it is 0.0103.

The record behind these values is the RNAGym collection of RNA variant scans (doi:10.1093/molbev/msab373).
